test system: Fes; GST-cortactin (residues 382–550); experiment: In vivo kinase assay: Fes autophosphorylation and GST-cortactin phosphorylation in transfected HEK293T cells; type: cell-based, human; conditions: full-length Flag-Fes, HEK293T, 24 hr, western blot anti-pTyr; in words
From the text: To pursue the relevance of the observed interdomain interactions, we studied the effects of mutating residues in the SH2-kinase interface on human Fes activity. To this end, we monitored Fes autophosphorylation and transphosphorylation activity in transfected cells, using cortactin (residues 382–550) fused to GST as an exogenous substrate (Figures 2A and 2B). In an effort to perturb the close interaction between the SH2 and kinase domains, we mutated the conserved glycine residue (G463) located in the tightly packed interface between the SH2 N terminus and the kinase β4/β5 loop to valine (mutant G/V). Introducing this bulky side chain would be expected to sterically hinder alignment of the SH2 and kinase domains, resulting in an altered domain packing. Wild-type (WT) and G/V mutant full-length human Fes, each with an N-terminal Flag epitope, were expressed in HEK293T cells together with GST-cortactin.
Wild-type p130^Gag-Fps and the RX15m and AX9m mutants ([Stone et al., 1984]) were subcloned into the vector pRK5-myc ([Winberg et al., 2000]). Full-length human Fes was cloned into the vector pCMV7.1-3xFlag (Sigma, St. Louis, MO). Site-directed mutagenesis was performed using the QuickChange® II XL Kit (Stratagene, La Jolla, CA) following the manufacturer's directions. A GST-tagged C-terminal fragment of human cortactin (residues 382–550, accession Q14247) was prepared by PCR from cDNA (accession BC008799) and cloned into pEBG vector (gift from C. Duckett, University of Michigan Medical School, Ann Arbor).
HEK293T cells were maintained in Dulbecco's modified Eagle's medium supplemented with 10% (vol/vol) fetal bovine serum, 100 units/ml penicillin G sodium, and 100 μg/ml streptomycin and incubated at 37°C, 5% CO2.
Flag-tagged Fes or Myc-tagged p130^Gag-Fps and mutants thereof were cotransfected with GST-cortactin into HEK293T cells. After 24 hr, cells were lysed with NP-40 cell lysis buffer (50 mM Tris-HCl [pH 7.5], 150 mM NaCl, 1% NP-40, and 1 mM EDTA) that contained 1 mM phenylmethylsulfonyl fluoride, 10 μg/ml leupeptin, 10 μg/ml aprotinin, and 10 μg/ml pepstatin A. Cell lysates, normalized for protein concentration, were used in anti-Flag M2 antibody-agarose (Sigma) or anti-Myc antibody immunoprecipitations or glutathione sepharose affinity precipitations. Associated proteins were resolved using SDS-PAGE and analyzed by western blotting using anti-Flag M2 (Sigma), anti-c-Myc 9E10 (Santa Cruz), HRP-conjugated anti-GST (Santa Cruz), or anti-pTyr 4G10 (Upstate) antibodies.

| Molecule | Fes kinase activity (autophosphorylation and cortactin phosphorylation) |
| --- | --- |
| EE/KK: Fes double mutant, E469 and E472 to lysine (protein) WYHGAIPRAKVAKLLVHSGDFLVRESQGKQEYVLSVLWDGLPRHFIIQSLDNLYRLEGEGFPSIPLLIDHLLSTQQPLTKKSGVVLHRAV | strongly reduced Fes kinase activity |
| WT: Wild-type full-length human Fes with N-terminal Flag epitope (protein, UniProt P07332 1-822, looked up, full-length N-terminal Flag tag) MGFSSELCSPQGHGVLQQMQEAELRLLEGMRKWMAQRVKSDREYAGLLHHMSLQDSGGQSRAISPDSPISQSWAEITSQTEGLSRLLRQHAEDLNSGPLSKLSLLIRERQQLRKTYSEQWQQLQQELTKTHSQDIEKLKSQYRALARDSAQAKRKYQEASKDKDRDKAKDKYVRSLWKLFAHHNRYVLGVRAAQLHHQHHHQLLLPGLLRSLQDLHEEMACILKEILQEYLEISSLVQDEVVAIHREMAAAAARIQPEAEYQGFLRQYGSAPDVPPCVTFDESLLEEGEPLEPGELQLNELTVESVQHTLTSVTDELAVATEMVFRRQEMVTQLQQELRNEEENTHPRERVQLLGKRQVLQEALQGLQVALCSQAKLQAQQELLQTKLEHLGPGEPPPVLLLQDDRHSTSSSEQEREGGRTPTLEILKSHISGIFRPKFSLPPPLQLIPEVQKPLHEQLWYHGAIPRAEVAELLVHSGDFLVRESQGKQEYVLSVLWDGLPRHFIIQSLDNLYRLEGEGFPSIPLLIDHLLSTQQPLTKKSGVVLHRAVPKDKWVLNHEDLVLGEQIGRGNFGEVFSGRLRADNTLVAVKSCRETLPPDLKAKFLQEARILKQYSHPNIVRLIGVCTQKQPIYIVMELVQGGDFLTFLRTEGARLRVKTLLQMVGDAAAGMEYLESKCCIHRDLAARNCLVTEKNVLKISDFGMSREEADGVYAASGGLRQVPVKWTAPEALNYGRYSSESDVWSFGILLWETFSLGASPYPNLSNQQTREFVEKGGRLPCPELCPDAVFRLMEQCWAYEPGQRPSFSTIYQELQSIRKRHR | active |
| EER/KKE: Fes triple mutant: EE/KK plus R609 in αC helix to glutamate (protein, UniProt P07332 1-822, looked up, variant E469K E472K R609E) Tyrosine-protein kinase …: MGFSSELCSPQGHGVLQQMQEAELRLLEGMRKWMAQRVKSDREYAGLLHHMSLQDSGGQSRAISPDSPISQSWAEITSQTEGLSRLLRQHAEDLNSGPLSKLSLLIRERQQLRKTYSEQWQQLQQELTKTHSQDIEKLKSQYRALARDSAQAKRKYQEASKDKDRDKAKDKYVRSLWKLFAHHNRYVLGVRAAQLHHQHHHQLLLPGLLRSLQDLHEEMACILKEILQEYLEISSLVQDEVVAIHREMAAAAARIQPEAEYQGFLRQYGSAPDVPPCVTFDESLLEEGEPLEPGELQLNELTVESVQHTLTSVTDELAVATEMVFRRQEMVTQLQQELRNEEENTHPRERVQLLGKRQVLQEALQGLQVALCSQAKLQAQQELLQTKLEHLGPGEPPPVLLLQDDRHSTSSSEQEREGGRTPTLEILKSHISGIFRPKFSLPPPLQLIPEVQKPLHEQLWYHGAIPRAKVAKLLVHSGDFLVRESQGKQEYVLSVLWDGLPRHFIIQSLDNLYRLEGEGFPSIPLLIDHLLSTQQPLTKKSGVVLHRAVPKDKWVLNHEDLVLGEQIGRGNFGEVFSGRLRADNTLVAVKSCRETLPPDLKAKFLQEAEILKQYSHPNIVRLIGVCTQKQPIYIVMELVQGGDFLTFLRTEGARLRVKTLLQMVGDAAAGMEYLESKCCIHRDLAARNCLVTEKNVLKISDFGMSREEADGVYAASGGLRQVPVKWTAPEALNYGRYSSESDVWSFGILLWETFSLGASPYPNLSNQQTREFVEKGGRLPCPELCPDAVFRLMEQCWAYEPGQRPSFSTIYQELQSIRKRHR | regained kinase activity to a level approaching wild-type |
| G/V: Fes mutant, conserved glycine residue (G463) mutated to valine (protein, UniProt P07332 1-822, looked up, variant G463V) Tyrosine-protein kinase …: MGFSSELCSPQGHGVLQQMQEAELRLLEGMRKWMAQRVKSDREYAGLLHHMSLQDSGGQSRAISPDSPISQSWAEITSQTEGLSRLLRQHAEDLNSGPLSKLSLLIRERQQLRKTYSEQWQQLQQELTKTHSQDIEKLKSQYRALARDSAQAKRKYQEASKDKDRDKAKDKYVRSLWKLFAHHNRYVLGVRAAQLHHQHHHQLLLPGLLRSLQDLHEEMACILKEILQEYLEISSLVQDEVVAIHREMAAAAARIQPEAEYQGFLRQYGSAPDVPPCVTFDESLLEEGEPLEPGELQLNELTVESVQHTLTSVTDELAVATEMVFRRQEMVTQLQQELRNEEENTHPRERVQLLGKRQVLQEALQGLQVALCSQAKLQAQQELLQTKLEHLGPGEPPPVLLLQDDRHSTSSSEQEREGGRTPTLEILKSHISGIFRPKFSLPPPLQLIPEVQKPLHEQLWYHVAIPRAEVAELLVHSGDFLVRESQGKQEYVLSVLWDGLPRHFIIQSLDNLYRLEGEGFPSIPLLIDHLLSTQQPLTKKSGVVLHRAVPKDKWVLNHEDLVLGEQIGRGNFGEVFSGRLRADNTLVAVKSCRETLPPDLKAKFLQEARILKQYSHPNIVRLIGVCTQKQPIYIVMELVQGGDFLTFLRTEGARLRVKTLLQMVGDAAAGMEYLESKCCIHRDLAARNCLVTEKNVLKISDFGMSREEADGVYAASGGLRQVPVKWTAPEALNYGRYSSESDVWSFGILLWETFSLGASPYPNLSNQQTREFVEKGGRLPCPELCPDAVFRLMEQCWAYEPGQRPSFSTIYQELQSIRKRHR | completely inactive |
| E472K: Fes E472K mutant (protein, UniProt P07332 1-822, looked up, variant E472K) Tyrosine-protein kinase …: MGFSSELCSPQGHGVLQQMQEAELRLLEGMRKWMAQRVKSDREYAGLLHHMSLQDSGGQSRAISPDSPISQSWAEITSQTEGLSRLLRQHAEDLNSGPLSKLSLLIRERQQLRKTYSEQWQQLQQELTKTHSQDIEKLKSQYRALARDSAQAKRKYQEASKDKDRDKAKDKYVRSLWKLFAHHNRYVLGVRAAQLHHQHHHQLLLPGLLRSLQDLHEEMACILKEILQEYLEISSLVQDEVVAIHREMAAAAARIQPEAEYQGFLRQYGSAPDVPPCVTFDESLLEEGEPLEPGELQLNELTVESVQHTLTSVTDELAVATEMVFRRQEMVTQLQQELRNEEENTHPRERVQLLGKRQVLQEALQGLQVALCSQAKLQAQQELLQTKLEHLGPGEPPPVLLLQDDRHSTSSSEQEREGGRTPTLEILKSHISGIFRPKFSLPPPLQLIPEVQKPLHEQLWYHGAIPRAEVAKLLVHSGDFLVRESQGKQEYVLSVLWDGLPRHFIIQSLDNLYRLEGEGFPSIPLLIDHLLSTQQPLTKKSGVVLHRAVPKDKWVLNHEDLVLGEQIGRGNFGEVFSGRLRADNTLVAVKSCRETLPPDLKAKFLQEARILKQYSHPNIVRLIGVCTQKQPIYIVMELVQGGDFLTFLRTEGARLRVKTLLQMVGDAAAGMEYLESKCCIHRDLAARNCLVTEKNVLKISDFGMSREEADGVYAASGGLRQVPVKWTAPEALNYGRYSSESDVWSFGILLWETFSLGASPYPNLSNQQTREFVEKGGRLPCPELCPDAVFRLMEQCWAYEPGQRPSFSTIYQELQSIRKRHR | not significantly impaired |
| E469K: Fes E469K mutant (protein, UniProt P07332 1-822, looked up, variant E469K) Tyrosine-protein kinase …: MGFSSELCSPQGHGVLQQMQEAELRLLEGMRKWMAQRVKSDREYAGLLHHMSLQDSGGQSRAISPDSPISQSWAEITSQTEGLSRLLRQHAEDLNSGPLSKLSLLIRERQQLRKTYSEQWQQLQQELTKTHSQDIEKLKSQYRALARDSAQAKRKYQEASKDKDRDKAKDKYVRSLWKLFAHHNRYVLGVRAAQLHHQHHHQLLLPGLLRSLQDLHEEMACILKEILQEYLEISSLVQDEVVAIHREMAAAAARIQPEAEYQGFLRQYGSAPDVPPCVTFDESLLEEGEPLEPGELQLNELTVESVQHTLTSVTDELAVATEMVFRRQEMVTQLQQELRNEEENTHPRERVQLLGKRQVLQEALQGLQVALCSQAKLQAQQELLQTKLEHLGPGEPPPVLLLQDDRHSTSSSEQEREGGRTPTLEILKSHISGIFRPKFSLPPPLQLIPEVQKPLHEQLWYHGAIPRAKVAELLVHSGDFLVRESQGKQEYVLSVLWDGLPRHFIIQSLDNLYRLEGEGFPSIPLLIDHLLSTQQPLTKKSGVVLHRAVPKDKWVLNHEDLVLGEQIGRGNFGEVFSGRLRADNTLVAVKSCRETLPPDLKAKFLQEARILKQYSHPNIVRLIGVCTQKQPIYIVMELVQGGDFLTFLRTEGARLRVKTLLQMVGDAAAGMEYLESKCCIHRDLAARNCLVTEKNVLKISDFGMSREEADGVYAASGGLRQVPVKWTAPEALNYGRYSSESDVWSFGILLWETFSLGASPYPNLSNQQTREFVEKGGRLPCPELCPDAVFRLMEQCWAYEPGQRPSFSTIYQELQSIRKRHR | reduced tyrosine kinase activity |
